# In patent publication US12458692B2, “Self-assembling peptide scaffold” (Hexamer Therapeutics, Inc., priority 2018, dated 2025):
# Where no end group is shown, it is not given here.
# Experiment: Blue native PAGE of the peptide hydrated in 1×PBS (self-assembly)
# Type: physicochemical
# Conditions: dissolved in 1×PBS, 5 min at room temperature, Blue NativePAGE Bis-Tris gel
# Method: The peptide (SEQ ID NO: 15) was synthesized by SPPS and lyophilized for storage. The peptide was dissolved in 1×PBS and then loaded onto a blue native PAGE gel and size fractionated by electrophoresis through a 4-16% acrylamide gradient gel for 90 min at 150 V (constant). The gel was fixed in methanol:acetic acid:water and then rinsed in the same solution to destain. Lane 1 is BSA as a reference protein, and Lane 2 is the self-assembled hexamer. MW standards (which are not shown) are on the right. BSA is 66 kDa and the hexamer has an expected size of 20.7 kDa.
# Experiments were performed to confirm that a hexamer forms following hydration of the monomer, elucidate the solubility of epitope coupled hexamers, determine the maximum density of epitope coupling, and confirm that a hexameric structure is maintained following coupling of the epitope. A representative peptide, SEQ ID NO: 15, was synthesized using the protocols previously described. A methionine and aspartic acid residue were placed on the N-terminus, and the methionine residue was protected by acetylation to form Acetyl-MD-(SEQ ID NO: 15). Following SPPS, the peptide was lyophilized for storage. To show self-assembly, the peptide was dissolved in 1×PBS buffer, incubated at room temperature for 5 min, and loaded onto a Blue NativePAGE Novex Bis-Tris Gel using the system purchased from Life Technologies. […]
sequence,measurement,setting,value
"LRSIGKDLRSIGRDLRSIGKDLRSIGRD (Ac-MDLRSIGKDLRSIGRDLRSIGKDLRSIGRD; also: hexamer) [Acetyl-MD-(SEQ ID NO: 15), Representative self-assembling peptide made by SPPS; forms the hexamer on hydration]",higher order structures or aggregates,,no detectable higher order structures or aggregates
same,oligomeric state after hydration (self-assembly),expected hexamer size 20.7 kDa,self-assembly of the hexamer
